Source: patent US20160280780A1 (CORMORANT PHARMACEUTICALS, published 2016)
Changes are numbered by the printed parent chain. Blank lines part the entries; values can stand above or below the molecule they belong to.

Tests used:
[1] = biological target: recombinant human IL-8 (form not stated for this assay) (human) (UniProt P10145); test: competition: varying murine anti-IL-8 antibody against 0.25 nM [125I]-rhIL-8 binding to IL-8 receptors (CXCR1, CXCR2) on human neutrophils, filter plate, gamma counting; x axis printed 'IL-8 (nM)'
[2] = biological target: T1, rh-IL-8 72 aa form, monocyte derived (human, UniProt P10145 28-99); test: cell-based or functional assay
T1 construct: mature; also called IL-8M; IL-8Mpepretech
T1 sequence (looked up): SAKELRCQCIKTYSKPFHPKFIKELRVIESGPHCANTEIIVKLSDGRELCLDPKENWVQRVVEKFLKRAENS

[3] = biological target: T1, rh-IL-8 72 aa form, monocyte derived; test: ELISA, plate coated with 1 µg/mL rh-IL-8 72 aa form (curve IL-8M), HuMab 10F8 titrated 1:3 from 20 µg/mL, HRP anti-human IgG, A405
Method: (§1) Possible cross-reactivity of HuMab 10F8 clone towards other chemokines was evaluated by ELISA. Briefly, microtiter ELISA plates (Greiner, Germany) were coated overnight at room temperature (RT) with 1 μg/mL of recombinant human (rh) GRO-α, rh-GRO-β, rh-IP-10, rh-IL-8 72 aa form, which is monocyte derived (IL-8M or IL-8Mpepretech) or rh-IL-8 77 aa form (IL-8E), which is endothelial cell derived, 100 μl per well. Plates were washed twice with PBST (phosphate buffered saline supplemented with 0.05% v/v Tween-20 (Fischer Scientific, USA)) and wells were blocked with 100 […] PBSTC (PBST plus 2% v/v chicken serum) for 1 hour, RT. Thereafter, wells were incubated for 1 hour, RT under shaking conditions with HuMab-IL-8 clone 10F8, 20 μg/mL 1:3 diluted in PBSTC. Subsequently, wells were washed thrice with PBST and incubated with either HRP-conjugated rabbit anti-mouse IgG F(ab′)₂ fragments (Jackson; diluted 1:3000 in PBSTC) or HRP-conjugated rabbit anti-human IgG F(ab′)₂ (DAKO, Denmark; diluted 1:2000 in PBSTC) for the detection of mouse or human antibodies, respectively.

[4] = biological target: T1, rh-IL-8 72 aa form, monocyte derived; test: ELISA, plate coated with 1 µg/mL rh-IL-8 72 aa form (curve IL-8Mpeprotec), HuMab 10F8 titrated 1:3 from 20 µg/mL, HRP anti-human IgG, A405
Method: as §1

[5] = biological target: T2, recombinant human IL-8 (form not stated for this assay) (human, UniProt P10145 28-99, limits assumed); test: competition: varying 10F8 against 0.25 nM [125I]-rhIL-8 binding to IL-8 receptors (CXCR1, CXCR2) on human neutrophils, filter plate, gamma counting; x axis printed 'IL-8 (nM)'
T2 construct: also called rhIL-8
T2 sequence (looked up): T1 sequence (looked up)
Method: The ability of HuMab 10F8 to inhibit radiolabeled IL-8 binding to IL-8 receptors (CXCR1 and CXCR2) on neutrophils was assessed as follows:
(§2) Neutrophils were enriched from heparinized whole blood from normal volunteers. The blood was layered on Ficoll-hypaque and centrifuged at 1500 rpm for 30 minutes. The mononuclear cell layer was removed, and erythrocytes were hypotonically lysed. The resulting neutrophils were resuspended in PBS containing 0.1% BSA and 0.02% Na azide (0.1% PBA) and held on ice. The IL-8 binding assay was performed as previously described (Yang et al, (1999) J. Leukoc. Biol. 66:401-410). Briefly, in a final volume of 150 μl, 4×10⁵ neutrophils were incubated from 1.5-3 hours on ice with 0.25 nM [¹²⁵I] recombinant human IL-8 (Amersham Life Sciences, Piscataway, N.J.) along with varying concentrations of 10F8 (hybridoma-derived), 10F8 (transfectoma-derived), mouse anti-human IL-8 mAb 6712.111 R & D Systems, and control antibody. All incubations were performed in 96 well Multiscreen filter plates (Millipore, Bedford, Mass.). Plates were washed extensively with cold 0.1% PBA, and filters were counted on a Wallac gamma counter. Results are shown in FIGS. 7A and 7B, expressed as means of triplicate or quadruplicates. The inhibition of binding is expressed as percentage of control antibody.

[6] = biological target: T2, recombinant human IL-8 (form not stated …); test: inhibition of 0.25 nM [125I]-IL-8 binding to human neutrophils (CXCR1 and CXCR2), filter plate assay
Method: as §2
In the experiment shown in FIG. 7B, the IC₅₀s of 10F8 (hybridoma-derived) (10F8 H) and 10F8 (transfectoma-derived) (10F8 T) were 0.19 nM and 0.30 nM, respectively.

[7] = biological target: T3, rh-GRO-β (human, UniProt P19875 35-107); test: ELISA, plate coated with 1 µg/mL rh-GRO-β, HuMab 10F8 titrated 1:3 from 20 µg/mL, HRP anti-human IgG, A405
T3 sequence (looked up): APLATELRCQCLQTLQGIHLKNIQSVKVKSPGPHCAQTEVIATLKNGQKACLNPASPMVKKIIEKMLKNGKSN
Method: as §1

[8] = biological target: T4, recombinant human (rh) GRO-α (human, UniProt P09341 35-107); test: ELISA, plate coated with 1 µg/mL rh-GRO-α, HuMab 10F8 titrated 1:3 from 20 µg/mL, HRP anti-human IgG, A405
T4 sequence (looked up): T3 sequence (looked up) with P2S, L3V, L20P, K27N, Q48R, M58I, K68N, N69S, G70D
Method: as §1

[9] = biological target: T2, recombinant human IL-8 (form not stated …); test: SPR, BIAcore 3000, IL-8 amine-coupled on CM-5 chip, 25° C.
Method: (§3) Affinity constants for 10F8 Fab were determined and compared with corresponding values of 10F8 IgG1,κ. Whole IgG molecules lead to rebinding effects during the dissociation phase of experimental procedures to determine the affinity constants, thus leading to an apparently lower dissociation rate constant and in turn, much higher affinity constant. To eliminate these artifactual avidity effects, Fab molecules were used in the place of IgG1,κ to determine the affinity and rate constants. A CM-5 chip was used to immobilize IL-8 via amine coupling.

[10] = biological target: T2, recombinant human IL-8 (form not stated …); test: SPR, BIAcore 3000, IL-8 amine-coupled on CM-5 chip, 37° C.
Method: as §3

[11] = biological target: T2, recombinant human IL-8 (form not stated …); test: SPR, BIAcore 3000, IL-8 amine-coupled on CM-5 chip, 25° C.; half-life of the complex
Method: as §3

[12] = biological target: T5, rh-IP-10 (human, UniProt P02778 22-98); test: ELISA, plate coated with 1 µg/mL rh-IP-10, HuMab 10F8 titrated 1:3 from 20 µg/mL, HRP anti-human IgG, A405
T5 sequence (looked up): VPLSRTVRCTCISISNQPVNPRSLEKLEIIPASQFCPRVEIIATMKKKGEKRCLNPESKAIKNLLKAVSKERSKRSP
Method: as §1

[13] = biological target: T2, recombinant human IL-8 (form not stated …); test: SPR, BIAcore 3000, IL-8 amine-coupled on CM-5 chip, 37° C.; half-life of the complex
Method: as §3

Molecule: irrelevant human isotype control antibody (Example 8)
expression level of CD11b on IL-8 stimulated PMN (MFI) [2]: 2400 MFI
expression of CD62L on IL-8 stimulated PMN (MFI) [2]: 150 MFI

B1: HuMab 10F8 (hybridoma-derived), human monoclonal IgG1,κ antibody (antibody, V domains shown)
VH: QVQLVESGGGVVQPGRSLRLSCTASGFTFSHYGMYWVRQAPGKGLEWVAVIWYDGSYEYNEDSVKGRFTISRDNSKNTLYLQMNSLRAEDTAVYYCARDRVGLFDYWGQGTLVTVSS
VL: EIVLTQSPGTLSLSPGERATLSCRASQSISSSYLAWYQQKPGQAPRLLIYGPSSRATGIPDRFSGSGSGTDFTLTISRLEPEDFAVYYCQQYAGSLTFGPGTKVDIK
notes: Purified from hybridoma culture supernatant by Protein A; also called HuMab-IL-8 clone 10F8; HuMab-IL-8 (10F8)
EC50 (read off the curve) [3]: ~0.4 µg/mL
EC50 (read off the curve) [4]: ~0.2 µg/mL
IC50 (read off the curve) [5]: ~0.2 nM
IC50 [6]: 0.19 nM
binding result [7]: no binding (tested: 20 µg/ml)
binding result [8]: no binding (tested: 20 µg/ml)
Kd [9]: 0.01 nM
koff [9]: 2.1e-06 s⁻¹
kon [9]: 231000 M⁻¹ s⁻¹
Kd [10]: 0.02 nM
koff [10]: 5.4e-06 s⁻¹
kon [10]: 275000 M⁻¹ s⁻¹
Half-life (1n (2/k_off hrs)) [11]: 90.4 h
binding result [12]: no binding (tested: 20 µg/ml)
Half-life (1n (2/k_off hrs)) [13]: 38.2 h

Other lines, results leading:

IC50 (read off the curve) [1]: 0.5 nM
Molecule: mouse anti-human IL-8 mAb 6712.111 (R & D Systems) (antibody)

Kd [9]: 0.194 nM
koff [9]: 1.96e-05 s⁻¹
kon [9]: 101000 M⁻¹ s⁻¹
Kd [10]: 0.372 nM
koff [10]: 3.94e-05 s⁻¹
kon [10]: 106000 M⁻¹ s⁻¹
Half-life (1n (2/k_off hrs)) [11]: 8.3 h
Half-life (1n (2/k_off hrs)) [13]: 4.9 h
B2: 10F8 Fab (Fab fragment prepared from HuMab 10F8 IgG) (Fab, V domains shown)
VH: B1 VH
VL: B1 VL

IC50 [6]: 0.3 nM
B3: HuMab 10F8 (transfectoma-derived), recombinant 10F8 produced from CHO cells (antibody, V domains shown)
VH: B1 VH
VL: B1 VL
